From patent publication US20170166643A1 (OSE IMMUNOTHERAPEUTICS, published 2017)
Where “and” joins values, the source holds several entries; their conditions need not be identical. Equal values may be shown once.

Target: T1, Recombinant human CD28 (R&D Systems) (human, UniProt P10747 19-152)
T1 construct: Coated on microtiter plates at 1 ug/mL; also called recombinant CD28
Experiment: ELISA on immobilized recombinant human CD28, purified Mono28Fc

B1: Mono28Fc, recombinant monovalent antibody derived from the anti-CD28 antibody CD28.3 (heterodimer VH-CH2CH3 + VL-CH2CH3, human IgG1 CH2-CH3) (antibody, V domains shown)
VH: VKLQQSGAELVKPGASVRLSCKASGYTFTEYIIHWIKLRSGQGLEWIGWFYPGSNDIQYNAKFKGKATLTADKSSSTVYMELTGLTSEDSAVYFCARRDDFSGYDALPYWGQGTMVTVSS
VL: DIQMTQSPASLSVSVGETVTITCRTNENIYSNLAWYQQKQGKSPQLLIYAATHLVEGVPSRFSGSGSGTQYSLKITSLQSEDFGNYYCQHFWGTPCTFGGGTKLEIKR
notes: Expressed in COS cells from pSecTag2B with the mouse Ig kappa leader (cleaved on secretion); also called co-transfection with pSec-VH-Fc(CH2-CH3) and pSec-VL-Fc(CH2-CH3)
B1 was tested, and the EC50 was 0.1 µg/mL and 1.16 nM.
